Measured values reported in article PMC4763223.
Each block holds one substance with its values, some of them ahead of it.

Legend:
Experiment in all cases: GEMMA (gas-phase electrophoretic mobility macromolecule analysis); DNA-free protein; equilibrated into 100 mM ammonium acetate pH 7.8, diluted to 20 mM ammonium acetate and 0.005% Tween-20; low flow-rate (pressure 2 Psi); non-tagged Kat1 at 0.085 mg/ml
[1] = molecular target: Glutathione S-transferase (GST) alone
[2] = molecular target: Glutathione S-transferase (GST)-tagged Kat1+G (Kluyveromyces lactis hAT-transposase 1) (Kluyveromyces lactis)
[3] = molecular target: non-tagged Kat1 (GST-tag cleaved from GST-Kat1 with thrombin) (Kluyveromyces lactis)

Sequence of Glutathione S-transferase (GST) alone (P08515 2-218): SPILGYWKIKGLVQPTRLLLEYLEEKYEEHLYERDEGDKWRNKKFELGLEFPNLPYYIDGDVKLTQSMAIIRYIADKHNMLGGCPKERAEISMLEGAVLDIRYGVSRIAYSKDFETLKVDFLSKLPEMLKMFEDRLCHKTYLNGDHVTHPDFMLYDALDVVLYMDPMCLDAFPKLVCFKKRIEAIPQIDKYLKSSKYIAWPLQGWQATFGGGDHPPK

stoichiometry N [1]: 2
Substance: Glutathione S-transferase (GST) alone (enzyme)

stoichiometry N [2]: 6
Substance: Glutathione S-transferase (GST)-tagged Kat1+G (Kluyveromyces lactis hAT-transposase 1) (enzyme)

stoichiometry N [3]: 6
Substance: non-tagged Kat1 (GST-tag cleaved from GST-Kat1 with thrombin) (enzyme)
